In patent EP1161455B1:

Experiments:
[1] = biological target: HIV-1 Env (LAV) (HIV-1 (LAV)) (UniProt P03377); experiment: cell-based or functional assay
[2] = biological target: HIV-1 wildtype (WT) SF162 Env (HIV-1 (SF162)) (UniProt P19550); experiment: cell-based or functional assay

| Substance | % control, Standard Assay (target cells with CXCR4 and CD4, no sCD4); 17b 0.1 µg/ml [1] [% control] | % control, Standard Assay (target cells with CXCR4 and CD4, no sCD4); 17b 0.5 µg/ml [1] [% control] | % control, Standard Assay (target cells with CXCR4 and CD4, no sCD4); 17b 1 µg/ml [1] [% control] | % control, Standard Assay (target cells with CXCR4 and CD4, no sCD4); 17b 5 µg/ml [1] [% control] | % control, sCD4 Assay (target cells with CXCR4 alone, sCD4 200 nM added); 17b 0.1 µg/ml [1] [% control] | % control, sCD4 Assay (target cells with CXCR4 alone, sCD4 200 nM added); 17b 0.5 µg/ml [1] [% control] | % control, sCD4 Assay (target cells with CXCR4 alone, sCD4 200 nM added); 17b 1 µg/ml [1] [% control] | % control, sCD4 Assay (target cells with CXCR4 alone, sCD4 200 nM added); 17b 5 µg/ml [1] [% control] | β-gal, Standard Assay (target cells with CXCR4 and CD4, no sCD4); 17b 0.1 µg/ml; no MAb 42.3 [1] | β-gal, Standard Assay (target cells with CXCR4 and CD4, no sCD4); 17b 0.5 µg/ml [1] | β-gal, Standard Assay (target cells with CXCR4 and CD4, no sCD4); 17b 1 µg/ml [1] | β-gal, Standard Assay (target cells with CXCR4 and CD4, no sCD4); 17b 5 µg/ml [1] | β-gal, sCD4 Assay (target cells with CXCR4 alone, sCD4 200 nM added); 17b 0.1 µg/ml; no MAb 11.89 [1] | β-gal, sCD4 Assay (target cells with CXCR4 alone, sCD4 200 nM added); 17b 0.5 µg/ml [1] | β-gal, sCD4 Assay (target cells with CXCR4 alone, sCD4 200 nM added); 17b 1 µg/ml [1] | β-gal, sCD4 Assay (target cells with CXCR4 alone, sCD4 200 nM added); 17b 5 µg/ml [1] | Total β-gal, WT Env (SF162), duplicate 1; effector cells with Env, target cells with CCR5 and no CD4; + sCD4 (100 nM) [2] | Total β-gal, WT Env (SF162), mean; + sCD4 (100 nM); 0.45 without sCD4 [2] |
| --- | --- | --- | --- | --- | --- | --- | --- | --- | --- | --- | --- | --- | --- | --- | --- | --- | --- | --- |
| MAb 17b (antibody) | 93.4 | 104 | 94.1 | 119 | 114 | 39.2 | 14.1 | 0 | 39.5 | 43.9 | 39.8 | 50.5 | 13.6 | 4.66 | 1.68 | 0 |  |  |
| soluble CD4 (from UniProt P01730 26-208) (receptor) |  |  |  |  |  |  |  |  |  |  |  |  |  |  |  |  | 6.6 | 5.9 |
